Test results from the RNAGym collection of RNA variant scans (doi:10.7554/elife.80360).

B1: CPEB3 Ribozyme (parent)
chain: GGGGGCCACAGCAGAAGCGUUCACGUCGCGGCCCCUGUCAGAUUCUGGUGAAUCUGCGAAUUCUGCUGU

Variants of: B1
Assay: self-cleavage, relative activity (ratio to wild type); higher = more cleavage; co-transcriptional

Q: With G30U U61A as the variant, how does the self-cleavage read?
A: 0.177

Q: Which self-cleavage does the source give for G30U C34A here?
A: 0.259

Q: For G30A U61C, which self-cleavage is on record?
A: 0.39

Q: For G30A U61G, which self-cleavage is on record?
A: 0.447

Q: Which self-cleavage does the source give for G30A U44G here?
A: 0.579

Q: For G30U U62A, which self-cleavage is on record?
A: 0.2

Q: For G31A U55G, which self-cleavage is on record?
A: 0.569

Q: Which self-cleavage does the source give for G31A U55A here?
A: 0.662

Q: Which self-cleavage does the source give for G31A U55C here?
A: 0.547

Q: Which self-cleavage does the source give for G31A C39A here?
A: 0.494

Q: For G30U G47C, which self-cleavage is on record?
A: 0.395

Q: Which self-cleavage does the source give for G30U G47A here?
A: 0.436

Q: For G30A C35G, which self-cleavage is on record?
A: 0.186

Q: With G30A C35U as the variant, how does the self-cleavage read?
A: 0.533

Q: With G30A G47U as the variant, how does the self-cleavage read?
A: 0.939

Q: Which self-cleavage does the source give for G30A G47A here?
A: 0.916

Q: For G31A U53G, which self-cleavage is on record?
A: 0.573

Q: For G30U U64C, which self-cleavage is on record?
A: 0.353

Q: For G30C A40U, which self-cleavage is on record?
A: 0.296

Q: Which self-cleavage does the source give for G30C U64G here?
A: 0.455

Q: Which self-cleavage does the source give for G30C U64A here?
A: 0.467

Q: With G30C U64C as the variant, how does the self-cleavage read?
A: 0.478

Q: For G30U A42G, which self-cleavage is on record?
A: 0.27

Q: For G31A A42C, which self-cleavage is on record?
A: 0.601

Q: For G30A C63U, which self-cleavage is on record?
A: 0.839

Q: With G30A C63G as the variant, how does the self-cleavage read?
A: 0.483

Q: With G30C G48U as the variant, how does the self-cleavage read?
A: 0.706

Q: Which self-cleavage does the source give for G30A U36G here?
A: 0.166

Q: For G30A U36C, which self-cleavage is on record?
A: 0.449

Q: For G30C U62C, which self-cleavage is on record?
A: 0.424

Q: Which self-cleavage does the source give for G31A G41A here?
A: 0.525

Q: For G30C G41C, which self-cleavage is on record?
A: 0.232

Q: For G30C G41U, which self-cleavage is on record?
A: 0.336

Q: For G30C U43A, which self-cleavage is on record?
A: 0.438

Q: For G30C G37U, which self-cleavage is on record?
A: 0.175

Q: Which self-cleavage does the source give for G30C G37C here?
A: 0.204

Q: For G30C G37A, which self-cleavage is on record?
A: 0.146

Q: For G30A U69G, which self-cleavage is on record?
A: 1.01

Q: For G30A G50U, which self-cleavage is on record?
A: 0.856

Q: For G30U C63U, which self-cleavage is on record?
A: 0.279

Q: With G30U C32U as the variant, how does the self-cleavage read?
A: 0.181

Q: For G30U C32G, which self-cleavage is on record?
A: 0.216

Q: With G31A G65C as the variant, how does the self-cleavage read?
A: 0.539

Q: Which self-cleavage does the source give for G31A G65U here?
A: 0.594

Q: For G31A G65A, which self-cleavage is on record?
A: 0.711

Q: With G30U G50A as the variant, how does the self-cleavage read?
A: 0.335

Q: With G30U G50U as the variant, how does the self-cleavage read?
A: 0.47

Q: For G30U G50C, which self-cleavage is on record?
A: 0.294

Q: For G30U A60G, which self-cleavage is on record?
A: 0.176

Q: Which self-cleavage does the source give for G30A G65U here?
A: 0.436

Q: For G30C U36C, which self-cleavage is on record?
A: 0.273

Q: Which self-cleavage does the source give for G30A U38A here?
A: 0.621

Q: With G31A C66U as the variant, how does the self-cleavage read?
A: 0.913

Q: With G31A C66A as the variant, how does the self-cleavage read?
A: 0.7

Q: For G30U C35U, which self-cleavage is on record?
A: 0.292

Q: With G30A G68C as the variant, how does the self-cleavage read?
A: 1.01

Q: Which self-cleavage does the source give for G30A G68U here?
A: 1

Q: With G31A U38A as the variant, how does the self-cleavage read?
A: 0.726

Q: Which self-cleavage does the source give for G31A U38G here?
A: 0.245

Q: With G31A C63A as the variant, how does the self-cleavage read?
A: 0.32

Q: Which self-cleavage does the source give for G30U U69G here?
A: 0.792

Q: With G30U U69C as the variant, how does the self-cleavage read?
A: 0.865

Q: Which self-cleavage does the source give for G30C C35U here?
A: 0.398

Q: Which self-cleavage does the source give for G30C C35A here?
A: 0.254

Q: Which self-cleavage does the source give for G30C U46C here?
A: 0.613

Q: For G30C U46A, which self-cleavage is on record?
A: 0.706

Q: With G30C A42U as the variant, how does the self-cleavage read?
A: 0.41

Q: Which self-cleavage does the source give for G30U G31U here?
A: 0.18

Q: Which self-cleavage does the source give for G30A G41U here?
A: 0.341

Q: With G31A G58U as the variant, how does the self-cleavage read?
A: 0.974

Q: For G31A G58C, which self-cleavage is on record?
A: 0.812

Q: With G30C U44A as the variant, how does the self-cleavage read?
A: 0.594

Q: With G30C U44C as the variant, how does the self-cleavage read?
A: 0.466

Q: Which self-cleavage does the source give for G30C U44G here?
A: 0.549

Q: With G31A A59G as the variant, how does the self-cleavage read?
A: 0.811

Q: Which self-cleavage does the source give for G30C C45G here?
A: 0.578

Q: For G30U U46G, which self-cleavage is on record?
A: 0.441

Q: With G30U G41C as the variant, how does the self-cleavage read?
A: 0.209

Q: For G30A U49A, which self-cleavage is on record?
A: 0.89

Q: Which self-cleavage does the source give for G30C G65A here?
A: 0.459

Q: For G30C G65U, which self-cleavage is on record?
A: 0.371

Q: For G30A G31A, which self-cleavage is on record?
A: 0.365

Q: With G30A G31U as the variant, how does the self-cleavage read?
A: 0.215

Q: For G30U G37U, which self-cleavage is on record?
A: 0.166
